# Reference: publication PMC7431413 (2020)
# B1: N-terminal domain of STAT3, biotinylated (domain or fragment)
# chain: QWNQLQQLDTRYLEQLHQLYSDSFPMELRQFLAPWIESQDWAYAASKESHATLVFHNLLGEIDQQYSRFLQESNVLYQHNLRRIKQFLQSRYLEKPMEIARIVARCLWEESRLLQTAATAAQQGGQANHPTAAVVT
# modifications: biotin on the Avi-tag
# B2: core fragment (CF) of STAT3, biotinylated (domain or fragment)
# chain: GQANHPTAAVVTEKQQMLEQHLQDVRKRVQDLEQKMKVVENLQDDFDFNYKTLKSQGDMQDLNGNNQSVTRQKMQQLEQMLTALDQMRRSIVSELAGLLSAMEYVQKTLTDEELADWKRRQQIACIGGPPNICLDRLENWITSLAESQLQTRQQIKKLEELQQKVSYKGDPIVQHRPMLEERIVELFRNLMKSAFVVERQPCMPMHPDRPLVIKTGVQFTTKVRLLVKFPELNYQLKIKVCIDKDSGDVAALRGSRKFNILGTNTKVMNMEESNNGSLSAEFKHLTLREQRCGNGGRANCDASLIVTEELHLITFETEVYHQGLKIDLETHSLPVVVISNICQMPNAWASILWYNMLTNNPKNVNFFTKPPIGTWDQVAEVLSWQFSSTTKRGLSIEQLTTLAEKLLGPGVNYSGCQITWAKFCKENMAGKGFSFWVWLDNIIDLVKKYILALWNEGYIMGFISKERERAILSTKPPGTFLLRFSESSKEGGVTFTWVEKDISGKTQIQSVEPYTKQQLNNMSFAEIIMGYKIMDATNILVSPLVYLYPDIPKEEAFGKYCRPESQEHPEADPGSAAPYLKTKFICVTPTTCSNTI
# modifications: biotin on the Avi-tag
# B3: monobody MS3-6, displayed on yeast cells (designed binder)
# chain: VSSVPTKLEVVAATPTSLLISWDAPAVTVDFYHITYGETGGNSPVQEFTVPGSKSTATISGLKPGVDYTITVYAYVSYPEYYFPSPISINYRT
# What was measured:
# Assay in all cases: FACS; yeast display
# [1] = biological target: MS3-N5
# [2] = biological target: MS3-N1
# [3] = biological target: MS3-N7
# [4] = biological target: MS3-2
# [5] = biological target: MS3-1
# [6] = biological target: MS3-8
# [7] = biological target: MS3-4
# [8] = biological target: MS3-7
# [9] = biological target: MS3-5
# [10] = biological target: B2
binder,measurement,setting,value
B1,Kd,[1],39 nM
same,Kd,[2],65 nM
same,Kd,[3],38 nM
B2,Kd,[4],104 nM
same,Kd,[5],127 nM
same,Kd,[6],235 nM
same,Kd,[7],18 nM
same,Kd,[8],135 nM
same,Kd,[9],88 nM
B3,Kd,[10],8 nM
